# Experimental data as given in the supplement of paper PMC12042874.
# ± gives the uncertainty stated by the source.
# Assay: amyloid nucleation score (Sup35N fusion, yeast selection) (log enrichment); library NNK2; higher = more nucleation; inactive = no reads after selection
# Procedure, shortened: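 Peptides of 20 random codons, each fused to Sup35N, were expressed in psi-negative yeast. Cells were induced with 100 μM copper sulfate for 24 hours and grown 7 days at 30°C on medium lacking adenine and uracil, and plasmid inserts before and after selection were Illumina-sequenced. Nucleation scores are DiMSum log enrichments of output over input reads, centred on the mode score of non-aggregating sequences, and sequences under 100 input reads were excluded.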
row,Substance,amyloid nucleation score
1,IVVSKVLLIWFPLLRRGANL,0.159 ± 0.49
2,TYCNRLRNRLMFFLYSPTTS,-0.587 ± 0.79
3,AKYIPHAVLKASPTVGIILV,-0.54 ± 1.1
4,NLHATWTLDESDFLYQPCLS,0.102 ± 0.2
5,TKRMLERVTFFVHWCWLWSV,1.09 ± 0.15
6,LPQVPRVFRS,-0.06 ± 1.1
7,NVVSLILVVLRASCTYLYNG,inactive
8,LYVFLLCNITLTSPLFNLLF,3.92 ± 0.1
9,CLTTGNLWEVTAGIESVRWI,0.202 ± 0.5
10,FSLQQVNFMTVSRGKCSLKL,inactive
11,TTMCMGLLTNWWAGRCL,2.76 ± 0.1
12,ACNLRAVYFT,-1.47 ± 0.39
13,RLPTGSQNY,-0.281 ± 0.38
14,NSLNI,-0.127 ± 1.1
15,TNVGCRVLCTLRSVTPDVVR,0.646 ± 0.62
16,RSSRYLLPFNGGTPFYDSR,-0.284 ± 1.1
17,EYHLDHDFSPMGMAPRH,0.049 ± 0.63
18,LFEASPDAVTVSCDALGLGY,0.324 ± 0.3
19,IDNLFWPRLSGPDFVI,-1.7 ± 1.1
20,RFKDCLIPQWLPGMIKNR,-0.444 ± 0.48
21,ICEVRIFKLNMVVCSLYYMV,-1.12 ± 0.76
22,LSMTEWVFSKGNRALAVYYM,-1.39 ± 0.61
23,VNYFVRGTVSK,0.074 ± 0.74
24,ITVYLRTRFLGFGFEYE,-0.536 ± 1
25,PVYMFKYLVTLIWPHSKATF,0.102 ± 0.34

row,Substance,amyloid nucleation score
1,GASLLFALSLSYKFHQYLVD,-1.44 ± 0.49
2,QKRPVDIVPDHVWLWTR,0.114 ± 0.55
3,ARSTAFMPEPSFLV,0.054 ± 0.56
4,PIKVDEVCGCRRRWFGDWDS,-0.146 ± 1
5,FMLTLQKTLFFCNDRVC,5.25 ± 0.064
6,LEVCFWFRNSVTKVSMSACL,-1.06 ± 0.63
7,KLFIRWVAWY,0.113 ± 0.8
8,NIVGHAHRLFNRMRCLRLYQ,-0.439 ± 0.32
9,NDHVVVAHTFYLCDRNVDEM,0.483 ± 0.4
10,VYRFSAAARLDWIDRVNLCN,0.868 ± 0.58
11,DFWTARFGIGCCGVPCDRFF,-0.507 ± 0.79
12,FDGTIYCPSWILWETPGVNK,inactive
13,RPPPHCSCSSYSWDMYCILN,8.58 ± 0.072
14,VSLWLYISMQCTRLSRRDQG,0.22 ± 0.65
15,VNWLFACVELR,0.365 ± 0.36
16,IKNVWFQFSCGGPGSLRVGS,0.318 ± 0.32
17,DVFYRSVPMQVGWQVMWACD,0.703 ± 0.15
18,TLKACKNFYGGIFCNHGSES,-0.72 ± 1.1
19,LSMTKLGVIGTSCNFLLW,inactive
20,RRGSSTIGADKESQVSLQN,-0.724 ± 1
21,KFKATWYRNSFRAMPCVKPA,0.042 ± 1.1
22,CYLLN,-0.805 ± 0.44
23,YVLKIGSY,-0.617 ± 0.44
24,CLKSISTRNR,-0.932 ± 0.76
25,NNLLYLLLLYVQTSAE,4.49 ± 0.099

row,Substance,amyloid nucleation score
1,VGPVNQRWGVTISLAPEVCF,0.553 ± 0.57
2,LGSVGFAVWG,0.17 ± 0.46
3,NVSIMFRFFVYLC,4.16 ± 0.066
4,GCDDDDAA,1.31 ± 0.32
5,SQWDKTVT,-0.986 ± 0.55
6,LYTQESYSDSFVNSLRCSKV,-0.064 ± 1.1
7,KGIQYSTLVTRRFWMW,3.68 ± 0.088
8,GVCSSNWVYVLLDVDDVISR,-0.564 ± 0.39
9,KLVMFVGIFSNT,6.39 ± 0.085
10,IFFLMNPR,2.16 ± 0.068
11,MKLNVWGFFDGKQRLMESAA,-1.2 ± 1.1
12,HYYSIDEASRYKMDLNLSLL,2.91 ± 0.099
13,SIGKYLCYA,2.38 ± 0.057
14,EVGKNRTSHIL,-0.134 ± 0.55
15,GCDEEDCCCLRFRGC,6.513 ± 0.031
16,CHSLGVRF,3.17 ± 0.093
17,SFINGILRFLSRRCNCIWLL,0.14 ± 0.5
18,YVVKIREIMVCSLVLDLRQR,2.57 ± 0.069
19,QVSSTST,0.592 ± 0.35
20,GPEWSSLGSKVRLHWINSM,0.626 ± 0.8
21,YYRIWYRVLIPSP,-0.43 ± 0.29
22,CSCNRLDYWAVNGRARRFKL,0.932 ± 0.81
23,CKPAVPMLN,2.49 ± 0.076
24,CWFGCVPDLTTGLGASCGRD,0.606 ± 0.2
25,RLVNASEGGMHWANSSEFYA,0.643 ± 0.24

row,Substance,amyloid nucleation score
1,FYNYRNDVIFVFLAHMPANY,2.43 ± 0.13
2,SLTSGRLYEIIIRIYHASFM,-1.46 ± 0.34
3,SQLFTVLSKS,-0.062 ± 0.35
4,TMKLLQRYYLSFFPI,-1.72 ± 0.64
5,ICGPLTRRVIDCGAYTKY,-0.19 ± 0.26
6,VSLMFSGVIWAIWLMLFGVG,1.13 ± 0.61
7,QKYLYQGCHLI,-1.24 ± 0.32
8,TMLYKWKVGNTFSHVLCLLL,-0.14 ± 1
9,MSGFTFKTLGGISHYDFQLD,inactive
10,VLICFVSLRLKVGTLIPTTT,-0.37 ± 0.76
11,MDFYYLGSVCHVDLLAQYLV,inactive
12,SDLRRCM,0.277 ± 0.21
13,YMLRIRTMSVPVFPVGFLGL,-0.275 ± 0.56
14,TLFSSRRYSVGERSQVTCLI,-0.492 ± 0.55
15,FSNVLRFSIA,-1.27 ± 0.45
16,CFYSNWKQGYDICHVSGDRF,-0.956 ± 0.78
17,FAESDGRHHFFSPLVSERIE,3.82 ± 0.056
18,NNKYWWDVLYYNSTLLARVN,-0.225 ± 0.48
19,GFSVRVGVMTFDSFDWRVLF,1.72 ± 0.15
20,QWYPNFHFHAISLCKYTGQG,0.017 ± 0.19
21,FFSNL,0.119 ± 0.57
22,LIVSPCN,-0.059 ± 0.26
23,VHVCVVACFACFSANSEKGG,10.79 ± 0.042
24,VLNERYSTLVVAPTRNASGL,inactive
25,VEARVHFPFWDLIEVSMYGY,-0.665 ± 0.49

row,Substance,amyloid nucleation score
1,YRHYIGRTSFTLY,-0.232 ± 1.1
2,QLDGWELATHRWCVILYVGC,-0.471 ± 0.48
3,HHSWRYRLYVSIDSSFCLGA,inactive
4,LRVKKYTDFHELEVGLFFWL,inactive
5,NGILRRCMSKLSRAWPDGLE,10.71 ± 0.046
6,FFFMSDLYKSLSSAYDLGSI,inactive
7,LNVHCAGCCANWPLC,9.041 ± 0.026
8,TLGNKFLKSWYMGASKTMCV,-1.78 ± 0.75
9,LLSVVKCACEMRTTKAVIGA,2.05 ± 0.35
10,DTLFLTCPSLHH,0.811 ± 0.58
11,APADH,2.52 ± 0.15
12,STICFG,-0.541 ± 1
13,HNIIWFSLTWLRYMSVVVIC,inactive
14,IQSDLNNLLMHVRVFMCSAV,4.05 ± 0.065
15,GRWLSFKFSDDRQRVRYRVH,-0.158 ± 0.63
16,MCTSGGISG,0.346 ± 0.5
17,NFLLSL,0.322 ± 0.47
18,ERTVKETFSTGNSYEGTGRR,-0.468 ± 0.53
19,NFFSTISQVMRYILFHSKVD,-1.54 ± 0.54
20,GALNISLDTLMVSRCYFHSP,0.945 ± 0.31
21,GIIWT,-0.078 ± 0.26
22,STSECLK,inactive
23,SELHGCYFHVHRRHRYRGYY,-0.015 ± 0.61
24,TNFFLNKRAGYNWLLVFEVI,-0.886 ± 0.48
25,LRIVICT,-1.63 ± 0.62

row,Substance,amyloid nucleation score
1,ITYNTS,0.936 ± 0.44
2,ETEGKGRWKD,inactive
3,SRQVTSCVVRRSQCIWSG,1.2 ± 0.27
4,VPSRS,0.172 ± 0.65
5,HIEFDRWAPHLVDLPTGPMK,inactive
6,FRKGNIMELFALCCMISYCF,-0.682 ± 0.49
7,LLVKTNYVCGALTNGRMNGT,2.12 ± 0.081
8,SFNGVILRNDVITRVLFDRQ,6.7 ± 0.051
9,NNFEI,-0.672 ± 0.6
10,TYKAAICLGCS,6.548 ± 0.033
11,KRVLDSGFN,-0.845 ± 1
12,NLCDYSSSRLIASRNMHYTA,4 ± 0.07
13,LGAGTSWAWLNLTYSEGTYK,0.27 ± 0.8
14,VDDFELMLYAMVVNGLELLD,-0.19 ± 1
15,FVCFPRSVAQRDDSSGVGGN,-0.121 ± 1.1
16,SGWDCSRVIQVLQVKNIYDS,3.36 ± 0.06
17,GLLNMCINCGRLFASPGISG,-0.285 ± 0.35
18,YYEYQVIYSVCSMRI,-0.31 ± 1
19,PTCSNHCFFYLNHTN,3.66 ± 0.12
20,NAVEIERNLLQIFQLLNSGE,-0.739 ± 0.64
21,KIAWLTLHLTMWFST,0.329 ± 0.41
22,TNLQSVRYVAHTF,3.96 ± 0.068
23,IFNCLFDNGKDVYFGILIDF,2.85 ± 0.081
24,LTMVWNKSFGEIHRLWVGNS,-1.58 ± 0.62
25,PMSYLVWVSDFYLLRGGS,0.019 ± 1.1

row,Substance,amyloid nucleation score
1,TVHRCD,0.627 ± 0.57
2,GKFQMS,-0.244 ± 0.56
3,CIRFVVMNIYGAASDKSMVG,7.422 ± 0.036
4,IDYLDTCFAVCFVGYTVCPT,0.111 ± 0.5
5,FGIERCRLYGNFYCVAVLGS,inactive
6,TSSSYTWLIKSMRVFTNYNV,-1.32 ± 0.38
7,TNWQGQRIRYAKDLGGPCGL,0.506 ± 0.35
8,FTFLRRLMFTGFRLAIQNPS,inactive
9,LAAGWGVLHELL,inactive
10,NKYKLNLYMRVIGDQNNPVN,-0.249 ± 1
11,CAVVKAILSCMFTLSSSCLH,0.441 ± 0.49
12,LSMVDCGASDGLEQVFGLAG,0.14 ± 0.33
13,HEYLRGRGTFGNIQDYNKLM,-0.447 ± 1.1
14,YGVYGHFKTLGNLTNRDVVS,-1.36 ± 0.75
15,VRRCIVRI,0.267 ± 0.4
16,FYCMKQLLNNIRWLGYSVCR,-1.28 ± 1.1
17,IVLYSGCVYKD,0.218 ± 0.33
18,ESYRPPVKTFGLGIRMGLFV,-0.975 ± 1.1
19,GLGAFSSP,0.247 ± 0.46
20,ITTFLCSGFCIINAVRNFLS,2.77 ± 0.12
21,YSGFIMWYLFDDTAQIP,-0.781 ± 1.1
22,ESAAER,-0.186 ± 0.76
23,TSPSKLFRDLFYHPRSKPVA,0.708 ± 0.41
